Blank lines part the entries; values can stand above or below the binder they belong to. Non-standard residues stand in square brackets, D forms with d. No end group written: not given here.
Legend:
[1] = biological target: T1, human gpr-54 receptor (human, UniProt Q969F8 1-398); experiment: cell-based or functional assay
[2] = biological target: T1, human gpr-54 receptor; experiment: cell-based or functional assay; remark: listed apart in the source
[3] = biological target: T1, human gpr-54 receptor; experiment: whole-cell competition binding against 125I-kisspeptin, CHO cells stably transfected with GPR54 (CPM); the fall of the curve lies between Total and -10 LogM [200]
Description: (§1) Cell monolayers were placed on ice and exposed to 0.5 mls peptide (10 pM-1 uM); the cells were then incubated at 4° C. for 4 hr. After 4 hrs, cells were washed twice with ice cold Dulbecco's phosphate buffered saline (DPBS; with Calcium and Magnesium) and then 0.5 mls 0.1M Sodium Hydroxide (NaOH) were added to cells for 20 minutes, shaking to lyse cells. Lysates were transferred to plastic tubes and bound radioactivity counted on the gamma counter for 60 seconds.

[4] = biological target: T1, human gpr-54 receptor; experiment: whole-cell competition binding against 125I-kisspeptin, CHO cells stably transfected with hGPR54 (CPM) [188]
Description: as §1

[5] = biological target: T1, human gpr-54 receptor; experiment: cell-based or functional assay; remark: listed apart in the source
[6] = biological target: T1, human gpr-54 receptor; experiment: cell-based or functional assay; remark: listed apart in the source
[7] = biological target: T1, human gpr-54 receptor; experiment: whole-cell competition binding against 125I-kisspeptin, CHO cells stably transfected with hGPR54 (CPM) [187]
Description: as §1

[8] = biological target: T1, human gpr-54 receptor; experiment: competition of I125-labelled kisspeptin-10 on gpr-54 cells (CPM x 10^3); the legend calls the number an affinity
[9] = biological target: T1, human gpr-54 receptor; experiment: cell-based or functional assay; remark: listed apart in the source
[10] = biological target: T1, human gpr-54 receptor; experiment: cell-based or functional assay; remark: listed apart in the source
[11] = biological target: T1, human gpr-54 receptor; experiment: whole-cell competition binding against 125I-kisspeptin, CHO cells stably transfected with GPR54 (CPM) [234]
Description: as §1

T1 sequence (Q969F8 whole entry): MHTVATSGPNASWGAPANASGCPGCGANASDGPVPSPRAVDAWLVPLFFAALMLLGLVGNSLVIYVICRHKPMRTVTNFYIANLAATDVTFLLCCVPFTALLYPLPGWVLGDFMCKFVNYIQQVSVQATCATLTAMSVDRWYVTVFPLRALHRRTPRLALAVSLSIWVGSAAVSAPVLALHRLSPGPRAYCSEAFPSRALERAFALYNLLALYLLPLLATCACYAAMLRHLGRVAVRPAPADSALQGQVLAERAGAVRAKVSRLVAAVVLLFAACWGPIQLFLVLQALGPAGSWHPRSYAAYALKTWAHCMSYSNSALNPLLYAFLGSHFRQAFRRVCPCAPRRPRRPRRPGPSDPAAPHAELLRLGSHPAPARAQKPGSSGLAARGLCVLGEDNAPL

Inhibition of IP stimulation by 10nM Agonist: % Inhibition of Max [1]: 63%
Inhibition of IP stimulation by 10nM Agonist: IC50 [1]: 300 nM
IP competition with 10nM kisspeptin-10: IC50 [200] [2]: 300 nM
IC50 [3]: 2.49 pM
B1: 200 (peptide)
peptide: Ac-FGL[dR]W-NH2
modifications: not fully specified
notes: kisspeptin-10 analogue; also called acFGL[(D)-R]W

IC50 [8]: 2.8 nM
IC50 of inhibition of 10 nM kisspeptin-10 stimulation of IP [9]: 7 nM
IC50 of inhibition of kisspeptin stimulation of IP [9]: < 10 nM
IP competition with 10nM kisspeptin-10: IC50 [234] [10]: 70 nM
Inhibition of IP stimulation by 10nM Agonist: IC50 [1]: 70 nM
IC50 [11]: 2.79 nM
B4: Peptide 234 (peptide)
peptide: [dA]NWNGFG[dW]RF-NH2

The next lines start with the binder.

B2: 188 (peptide)
peptide: Ac-FGLRF-NH2
notes: kisspeptin-10 analogue; also called Peptide 188; acFGLRF
IC50 [4]: 143 nM
IP competition with 10nM kisspeptin-10: IC50 [188] [5]: < 100 pM
IP dose response, peptide alone: EC50 (unlabelled number beside rising curve) [188] [5]: 92.3 nM
IP stimulation (IC50), peptide alone [1]: 125 nM
Inhibition of IP stimulation by 10nM Agonist: % Inhibition of Max [1]: 74%

B3: 187 (peptide)
peptide: YNWNSFGLRW-NH2
notes: kisspeptin-10 analogue
IP dose response, peptide alone: EC50 (unlabelled number beside rising curve) [187] [6]: 72.1 nM
IP stimulation (IC50), peptide alone [1]: 40 nM
Inhibition of IP stimulation by 10nM Agonist: % Inhibition of Max [1]: 36%
IC50 [7]: 211 nM

From patent US20110046068A1 (MEDICAL RESEARCH COUNCIL, published 2011)
